In this data set the test system is Bacillus subtilis. Kind of data set: cleaved RNA product abundance (RNA/gDNA barcode ratio) relative to median wild-type variant (ratio to wild type); higher = more accumulation of the downstream cleavage product. Conditions: cleavage site: cggR-gapA (positions -7 to +36 mutated). The method, boiled down: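 Cleaved product abundance for each construct is its RNA-to-gDNA barcode ratio, scaled to the median construct carrying the unmutated site. Cleaved RNA was isolated on a gel, reverse transcribed and barcode-sequenced, with genomic DNA barcodes sequenced alongside and UMIs collapsed. The reporters were truncated aprE or tetM mRNAs with barcoded, mutagenized RNase Y cleavage-site windows integrated into the B. subtilis chromosome, and cultures grew in LB at 37°C from OD600 0.0003 to 0.3.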

[1] abbreviates: experiment (reporter, strain, medium): exp 2b: truncated aprE reporter, strain BJT200.
The mark [2] stands for this setting: experiment (reporter, strain, medium): exp 4a: truncated aprE reporter, strain BJT201 with 2% xylose (RNase J1 expressed).

As for “ACAGACGAAGGAGCCGCAAAGAAGTTATTAAGGGATAAATAATCCCTCAATATAGATATCTCTCACTTATTTAAA”, the “cleaved RNA product abundance” value by setting is: under setting [1], 0.638; under setting [2], 1.02.
With “ACAGACGAAGGAGCCGCAAAGAAGTTATTAAGGGATAAATAATCCCTCAATATATATATCTCTCACTTATTTAAA”, the “cleaved RNA product abundance” value under setting [2] was found to be 0.916.
For the sequence “ACAGACGAAGGAGCCGCAAAGAAGTTATTAAGGGATAAATAATCCCTCAATTTAAATATCTCTCACTTATTTAAA”, the “cleaved RNA product abundance” value under setting [2] was 0.167.
For the sequence “ACAGACGAAGGAGCCGCAAAGAAGTTATTAAGGGATAAATAATCCCTCACTATAAATATCTCTCACTTATTTAAA”, the “cleaved RNA product abundance” value was determined as 0.247 under setting [1] and 0.193 under setting [2].
Turning to “ACAGACGAAGGAGCCGCAAAGAAGTTATTAAGGGATAAATAATCCCTCAGTATAAATATCTCTCACTTATTTAAA”, the “cleaved RNA product abundance” value under setting [2] was 0.242.
As to “ACAGACGAAGGAGCCGCAAAGAAGTTATTAAGGGATAAATAATCCCTCATTATAAATATCTCTCACTTATTTAAA”, the “cleaved RNA product abundance” value under setting [2] amounted to 0.267.
As to “ACAGACGAAGGAGCCGCAAAGAAGTTATTAAGGGATAAATAATCCCTCCATATAAATATCTCTCACTTATTTAAA”, the “cleaved RNA product abundance” value is, setting by setting: under setting [1], 0.26; under setting [2], 0.234.
For the sequence “ACAGACGAAGGAGCCGCAAAGAAGTTATTAAGGGATAAATAATCCCTCGATATAAATATCTCTCACTTATTTAAA”, the “cleaved RNA product abundance” value under setting [2] was 0.433.
Turning to “ACAGACGAAGGAGCCGCAAAGAAGTTATTAAGGGATAAATAATCCCTCTATATAAATATCTCTCACTTATTTAAA”, the “cleaved RNA product abundance” value is 0.396 under setting [1] and 0.326 under setting [2].
Regarding “ACAGACGAAGGAGCCGCAAAGAAGTTATTAAGGGATAAATAATCCCTGAATATAAATATCTCTCACTTATTTAAA”, under setting [2], the “cleaved RNA product abundance” value came to 0.734.
As to “ACAGACGAAGGAGCCGCAAAGAAGTTATTAAGGGATAAATAATCCCTTAATATAAATATCTCTCACTTATTTAAA”, the “cleaved RNA product abundance” value is, setting by setting: under setting [1], 0.71; under setting [2], 0.48.
As for “ACAGACGAAGGAGCCGCAAAGAAGTTATTAAGGGATAAATAATCCGTCAATATAAATATCTCTCACTTATTTAAA”, the “cleaved RNA product abundance” value was determined as 0.132 under setting [1] and 0.166 under setting [2].
As for “ACAGACGAAGGAGCCGCAAAGAAGTTATTAAGGGATAAATAATCCTTCAATATAAATATCTCTCACTTATTTAAA”, the “cleaved RNA product abundance” value amounted to 0.303 under setting [1] and 0.338 under setting [2].
Take “ACAGACGAAGGAGCCGCAAAGAAGTTATTAAGGGATAAATAATCGCTCAATATAAATATCTCTCACTTATTTAAA”: the “cleaved RNA product abundance” value under setting [2] stood at 0.0974.
For “ACAGACGAAGGAGCCGCAAAGAAGTTATTAAGGGATAAATAATCTCTCAATATAAATATCTCTCACTTATTTAAA”, the “cleaved RNA product abundance” value under setting [2] was determined as 0.355.
Turning to “ACAGACGAAGGAGCCGCAAAGAAGTTATTAAGGGATAAATAATGCCTCAATATAAATATCTCTCACTTATTTAAA”, under setting [2], the “cleaved RNA product abundance” value worked out at 0.0991.
“ACAGACGAAGGAGCCGCAAAGAAGTTATTAAGGGATAAATAATTCCTCAATATAAATATCTCTCACTTATTTAAA”: the “cleaved RNA product abundance” value under setting [2] turned out to be 0.294.
“ACAGACGAAGGAGCCGCAAAGAAGTTATTAAGGGATAAATACTCCCTCAATATAAATATCTCTCACTTATTTAAA”: the “cleaved RNA product abundance” value was 0.674 under setting [1] and 0.534 under setting [2].
In the case of “ACAGACGAAGGAGCCGCAAAGAAGTTATTAAGGGATAAATATTCCCTCAATATAAATATCTCTCACTTATTTAAA”, the “cleaved RNA product abundance” value under setting [1] is 0.755 and the “cleaved RNA product abundance” value under setting [2] was determined as 1.01.
For the sequence “ACAGACGAAGGAGCCGCAAAGAAGTTATTAAGGGATAAATCATCCCTCAATATAAATATCTCTCACTTATTTAAA”, the “cleaved RNA product abundance” value under setting [2] is 0.818.
Turning to “ACAGACGAAGGAGCCGCAAAGAAGTTATTAAGGGATAAATGATCCCTCAATATAAATATCTCTCACTTATTTAAA”, the “cleaved RNA product abundance” value under setting [2] came out at 0.455.
Turning to “ACAGACGAAGGAGCCGCAAAGAAGTTATTAAGGGATAAATTATCCCTCAATATAAATATCTCTCACTTATTTAAA”, the “cleaved RNA product abundance” value by setting is: under setting [1], 1.07; under setting [2], 1.03.
On to “ACAGACGAAGGAGCCGCAAAGAAGTTATTAAGGGATAACTAATCCCTCAATATAAATATCTCTCACTTATTTAAA”, for which the “cleaved RNA product abundance” value under setting [2] is 0.57.
For the sequence “ACAGACGAAGGAGCCGCAAAGAAGTTATTAAGGGATAAGTAATCCCTCAATATAAATATCTCTCACTTATTTAAA”, the “cleaved RNA product abundance” value by setting is: under setting [1], 0.555; under setting [2], 0.785.
For “ACAGACGAAGGAGCCGCAAAGAAGTTATTAAGGGATAATTAATCCCTCAATATAAATATCTCTCACTTATTTAAA”, the “cleaved RNA product abundance” value under setting [1] was 1.13 and the “cleaved RNA product abundance” value under setting [2] was determined as 0.759.
Turning to “ACAGACGAAGGAGCCGCAAAGAAGTTATTAAGGGATAGATAATCCCTCAATATAAATATCTCTCACTTATTTAAA”, under setting [2], the “cleaved RNA product abundance” value stood at 0.791.
Consider “ACAGACGAAGGAGCCGCAAAGAAGTTATTAAGGGATATATAATCCCTCAATATAAATATCTCTCACTTATTTAAA”, for which, under setting [2], the “cleaved RNA product abundance” value came out at 0.738.
Take “ACAGACGAAGGAGCCGCAAAGAAGTTATTAAGGGATCAAAAATCCCTCAATATAAATATCTCTCACTTATTTAAA”: the “cleaved RNA product abundance” value reads like this: under setting [1], 0.804; under setting [2], 1.17.
“ACAGACGAAGGAGCCGCAAAGAAGTTATTAAGGGATCAACAATCCCTCAATATAAATATCTCTCACTTATTTAAA”: the “cleaved RNA product abundance” value is 1 under setting [1] and 0.962 under setting [2].
The corresponding values for “ACAGACGAAGGAGCCGCAAAGAAGTTATTAAGGGATCAATAAACCCTCAATATAAATATCTCTCACTTATTTAAA” are 0.518 and 0.429.
Regarding “ACAGACGAAGGAGCCGCAAAGAAGTTATTAAGGGATCAATAACCCCTCAATATAAATATCTCTCACTTATTTAAA”, the “cleaved RNA product abundance” value under setting [2] is 0.561.
On the same count and under the same terms, the value for “ACAGACGAAGGAGCCGCAAAGAAGTTATTAAGGGATCAATAATACCTAAATATAAATATCTCTCACTTATTTAAA” was 0.0917.
As for “ACAGACGAAGGAGCCGCAAAGAAGTTATTAAGGGATCAATAATACCTCAATATAAATATCTCTCACTTATTTAAA”, the “cleaved RNA product abundance” value under setting [2] was determined as 0.146.
In the case of “ACAGACGAAGGAGCCGCAAAGAAGTTATTAAGGGATCAATAATCACTCAATATAAATATCTCTCACTTATTTAAA”, the “cleaved RNA product abundance” value runs as follows: under setting [1], 0.0917; under setting [2], 0.0833.
Regarding “ACAGACGAAGGAGCCGCAAAGAAGTTATTAAGGGATCAATAATCCATCAATATAAATATCTCTCACTTATTTAAA”, the “cleaved RNA product abundance” value under setting [2] came to 0.312.
For “ACAGACGAAGGAGCCGCAAAGAAGTTATTAAGGGATCAATAATCCCACAATATAAATATCTCTCACTTATTTAAA”, the “cleaved RNA product abundance” value reads like this: under setting [1], 0.192; under setting [2], 0.208.
The corresponding values for “ACAGACGAAGGAGCCGCAAAGAAGTTATTAAGGGATCAATAATCCCTAAATATAAATATCTCTCACTTATTTAAA” are 0.551 and 0.657.
As to “ACAGACGAAGGAGCCGCAAAGAAGTTATTAAGGGATCAATAATCCCTCAAAATAAATATCTCTCACTTATTTAAA”, the “cleaved RNA product abundance” value is, setting by setting: under setting [1], 0.214; under setting [2], 0.315.
With “ACAGACGAAGGAGCCGCAAAGAAGTTATTAAGGGATCAATAATCCCTCAACATAAATATCTCTCACTTATTTAAA”, the “cleaved RNA product abundance” value under setting [2] stood at 0.258.
On to “ACAGACGAAGGAGCCGCAAAGAAGTTATTAAGGGATCAATAATCCCTCAATATAAATAACTCTCACTTATTTAAA”, for which, under setting [2], the “cleaved RNA product abundance” value stood at 0.687.
